The labels stand for the following.
B1: FIXa-Y155F/K247N/N249S/R338E/T343R/R403E (protein)
chain 1: YNSGKLEEFVQGNLERECMEEKCSFEEAREVFENTERTTEFWKQYVDGDQCESNPCLNGGSCKDDINSYECWCPFGFEGKNCELDVTCNIKNGRCEQFCKNSADNKVVCSCTEGYRLAENQKSCEPAVPFPCGRVSVSQTSKLTR
chain 2: VVGGEDAKPGQFPWQVVLNGKVDAFCGGSIVNEKWIVTAAHCVETGVKITVVAGEHNIEETEHTEQNRSVIRIIPHHNYNAAINKYNHDIALLELDEPLVLNSYVTPICIADKEYTNIFLKFGSGYVSGWGRVFHKGRSALVLQYLRVPLVDRATCLESTKFRIYNNMFCAGFHEGGRDSCQGDSGGPHVTEVEGTSFLTGIISWGEECAMKGKYGIYTKVSEYVNWIKEKTKLT
B2: FIXa-K247N/N249S/R338E/T343R/E410N (protein)
chain 1: YNSGKLEEFVQGNLERECMEEKCSFEEAREVFENTERTTEFWKQYVDGDQCESNPCLNGGSCKDDINSYECWCPFGFEGKNCELDVTCNIKNGRCEQFCKNSADNKVVCSCTEGYRLAENQKSCEPAVPFPCGRVSVSQTSKLTR
chain 2: VVGGEDAKPGQFPWQVVLNGKVDAFCGGSIVNEKWIVTAAHCVETGVKITVVAGEHNIEETEHTEQNRSVIRIIPHHNYNAAINKYNHDIALLELDEPLVLNSYVTPICIADKEYTNIFLKFGSGYVSGWGRVFHKGRSALVLQYLRVPLVDRATCLESTKFRIYNNMFCAGFHEGGRDSCQGDSGGPHVTEVEGTSFLTGIISWGEECAMKGKYGIYTKVSRYVNWIKNKTKLT
B3: FIXa-Y155F/R338E/R403E/E410N (protein)
chain 1: YNSGKLEEFVQGNLERECMEEKCSFEEAREVFENTERTTEFWKQYVDGDQCESNPCLNGGSCKDDINSYECWCPFGFEGKNCELDVTCNIKNGRCEQFCKNSADNKVVCSCTEGYRLAENQKSCEPAVPFPCGRVSVSQTSKLTR
chain 2: VVGGEDAKPGQFPWQVVLNGKVDAFCGGSIVNEKWIVTAAHCVETGVKITVVAGEHNIEETEHTEQKRNVIRIIPHHNYNAAINKYNHDIALLELDEPLVLNSYVTPICIADKEYTNIFLKFGSGYVSGWGRVFHKGRSALVLQYLRVPLVDRATCLRSTKFTIYNNMFCAGFHEGGEDSCQGDSGGPHVTEVEGTSFLTGIISWGEECAMKGKYGIYTKVSEYVNWIKNKTKLT
B4: FIXa-Y155F/K247N/N249S/T343R/R403E/E410N (protein)
chain 1: YNSGKLEEFVQGNLERECMEEKCSFEEAREVFENTERTTEFWKQYVDGDQCESNPCLNGGSCKDDINSYECWCPFGFEGKNCELDVTCNIKNGRCEQFCKNSADNKVVCSCTEGYRLAENQKSCEPAVPFPCGRVSVSQTSKLTR
chain 2: VVGGEDAKPGQFPWQVVLNGKVDAFCGGSIVNEKWIVTAAHCVETGVKITVVAGEHNIEETEHTEQNRSVIRIIPHHNYNAAINKYNHDIALLELDEPLVLNSYVTPICIADKEYTNIFLKFGSGYVSGWGRVFHKGRSALVLQYLRVPLVDRATCLRSTKFRIYNNMFCAGFHEGGRDSCQGDSGGPHVTEVEGTSFLTGIISWGEECAMKGKYGIYTKVSEYVNWIKNKTKLT
B5: FIXa variant D104N/K106S/I251S/R318Y/R338E/R403E/E410N (protein)
chain 1: YNSGKLEEFVQGNLERECMEEKCSFEEAREVFENTERTTEFWKQYVDGDQCESNPCLNGGSCKDDINSYECWCPFGFEGKNCELDVTCNIKNGRCEQFCKNSANNSVVCSCTEGYRLAENQKSCEPAVPFPCGRVSVSQTSKLTR
chain 2: VVGGEDAKPGQFPWQVVLNGKVDAFCGGSIVNEKWIVTAAHCVETGVKITVVAGEHNIEETEHTEQKRNVSRIIPHHNYNAAINKYNHDIALLELDEPLVLNSYVTPICIADKEYTNIFLKFGSGYVSGWGRVFHKGYSALVLQYLRVPLVDRATCLESTKFTIYNNMFCAGFHEGGRDSCQGDSGGPHVTEVEGTSFLTGIISWGEECAMKGKYGIYTKVSEYVNWIKNKTKLT
B6: FIXa variant Y155F/K228N/R318Y/R338E/R403E/E410N (protein)
chain 1: YNSGKLEEFVQGNLERECMEEKCSFEEAREVFENTERTTEFWKQYVDGDQCESNPCLNGGSCKDDINSYECWCPFGFEGKNCELDVTCNIKNGRCEQFCKNSADNKVVCSCTEGYRLAENQKSCEPAVPFPCGRVSVSQTSKLTR
chain 2: VVGGEDAKPGQFPWQVVLNGKVDAFCGGSIVNEKWIVTAAHCVETGVNITVVAGEHNIEETEHTEQKRNVIRIIPHHNYNAAINKYNHDIALLELDEPLVLNSYVTPICIADKEYTNIFLKFGSGYVSGWGRVFHKGYSALVLQYLRVPLVDRATCLESTKFTIYNNMFCAGFHEGGRDSCQGDSGGPHVTEVEGTSFLTGIISWGEECAMKGKYGIYTKVSEYVNWIKNKTKLT
B7: FIXa variant I251S/R318Y/R338E/R403E/E410N (protein)
chain 1: YNSGKLEEFVQGNLERECMEEKCSFEEAREVFENTERTTEFWKQYVDGDQCESNPCLNGGSCKDDINSYECWCPFGFEGKNCELDVTCNIKNGRCEQFCKNSADNKVVCSCTEGYRLAENQKSCEPAVPFPCGRVSVSQTSKLTR
chain 2: VVGGEDAKPGQFPWQVVLNGKVDAFCGGSIVNEKWIVTAAHCVETGVKITVVAGEHNIEETEHTEQKRNVSRIIPHHNYNAAINKYNHDIALLELDEPLVLNSYVTPICIADKEYTNIFLKFGSGYVSGWGRVFHKGYSALVLQYLRVPLVDRATCLESTKFTIYNNMFCAGFHEGGRDSCQGDSGGPHVTEVEGTSFLTGIISWGEECAMKGKYGIYTKVSEYVNWIKNKTKLT
B8: FIXa variant Y259F/K265T/Y345T (protein)
chain 1: YNSGKLEEFVQGNLERECMEEKCSFEEAREVFENTERTTEFWKQYVDGDQCESNPCLNGGSCKDDINSYECWCPFGFEGKNCELDVTCNIKNGRCEQFCKNSADNKVVCSCTEGYRLAENQKSCEPAVPFPCGRVSVSQTSKLTR
chain 2: VVGGEDAKPGQFPWQVVLNGKVDAFCGGSIVNEKWIVTAAHCVETGVKITVVAGEHNIEETEHTEQKRNVIRIIPHHNFNAAINTYNHDIALLELDEPLVLNSYVTPICIADKEYTNIFLKFGSGYVSGWGRVFHKGRSALVLQYLRVPLVDRATCLRSTKFTITNNMFCAGFHEGGRDSCQGDSGGPHVTEVEGTSFLTGIISWGEECAMKGKYGIYTKVSRYVNWIKEKTKLT
B9: FIXa variant D85N/K228N/R318Y/R338E/R403E/E410N (protein)
chain 1: YNSGKLEEFVQGNLERECMEEKCSFEEAREVFENTERTTEFWKQYVDGDQCESNPCLNGGSCKDDINSYECWCPFGFEGKNCELNVTCNIKNGRCEQFCKNSADNKVVCSCTEGYRLAENQKSCEPAVPFPCGRVSVSQTSKLTR
chain 2: VVGGEDAKPGQFPWQVVLNGKVDAFCGGSIVNEKWIVTAAHCVETGVNITVVAGEHNIEETEHTEQKRNVIRIIPHHNYNAAINKYNHDIALLELDEPLVLNSYVTPICIADKEYTNIFLKFGSGYVSGWGRVFHKGYSALVLQYLRVPLVDRATCLESTKFTIYNNMFCAGFHEGGRDSCQGDSGGPHVTEVEGTSFLTGIISWGEECAMKGKYGIYTKVSEYVNWIKNKTKLT
B10: FIXa-K247N/N249S/R338E/T343R/R403E (protein)
chain 1: YNSGKLEEFVQGNLERECMEEKCSFEEAREVFENTERTTEFWKQYVDGDQCESNPCLNGGSCKDDINSYECWCPFGFEGKNCELDVTCNIKNGRCEQFCKNSADNKVVCSCTEGYRLAENQKSCEPAVPFPCGRVSVSQTSKLTR
chain 2: VVGGEDAKPGQFPWQVVLNGKVDAFCGGSIVNEKWIVTAAHCVETGVKITVVAGEHNIEETEHTEQNRSVIRIIPHHNYNAAINKYNHDIALLELDEPLVLNSYVTPICIADKEYTNIFLKFGSGYVSGWGRVFHKGRSALVLQYLRVPLVDRATCLESTKFRIYNNMFCAGFHEGGRDSCQGDSGGPHVTEVEGTSFLTGIISWGEECAMKGKYGIYTKVSEYVNWIKEKTKLT
B11: FIXa-Y155F/R318Y/R403E/E410N (protein)
chain 1: YNSGKLEEFVQGNLERECMEEKCSFEEAREVFENTERTTEFWKQYVDGDQCESNPCLNGGSCKDDINSYECWCPFGFEGKNCELDVTCNIKNGRCEQFCKNSADNKVVCSCTEGYRLAENQKSCEPAVPFPCGRVSVSQTSKLTR
chain 2: VVGGEDAKPGQFPWQVVLNGKVDAFCGGSIVNEKWIVTAAHCVETGVKITVVAGEHNIEETEHTEQKRNVIRIIPHHNYNAAINKYNHDIALLELDEPLVLNSYVTPICIADKEYTNIFLKFGSGYVSGWGRVFHKGYSALVLQYLRVPLVDRATCLRSTKFTIYNNMFCAGFHEGGRDSCQGDSGGPHVTEVEGTSFLTGIISWGEECAMKGKYGIYTKVSEYVNWIKNKTKLT
B12: FIXa-Y155F/K247N/N249S/R338E/T343R/E410N (protein)
chain 1: YNSGKLEEFVQGNLERECMEEKCSFEEAREVFENTERTTEFWKQYVDGDQCESNPCLNGGSCKDDINSYECWCPFGFEGKNCELDVTCNIKNGRCEQFCKNSADNKVVCSCTEGYRLAENQKSCEPAVPFPCGRVSVSQTSKLTR
chain 2: VVGGEDAKPGQFPWQVVLNGKVDAFCGGSIVNEKWIVTAAHCVETGVKITVVAGEHNIEETEHTEQNRSVIRIIPHHNYNAAINKYNHDIALLELDEPLVLNSYVTPICIADKEYTNIFLKFGSGYVSGWGRVFHKGRSALVLQYLRVPLVDRATCLESTKFRIYNNMFCAGFHEGGRDSCQGDSGGPHVTEVEGTSFLTGIISWGEECAMKGKYGIYTKVSRYVNWIKNKTKLT
B13: FIXa-Y155F/R318Y/R338E/R403E (protein)
chain 1: YNSGKLEEFVQGNLERECMEEKCSFEEAREVFENTERTTEFWKQYVDGDQCESNPCLNGGSCKDDINSYECWCPFGFEGKNCELDVTCNIKNGRCEQFCKNSADNKVVCSCTEGYRLAENQKSCEPAVPFPCGRVSVSQTSKLTR
chain 2: VVGGEDAKPGQFPWQVVLNGKVDAFCGGSIVNEKWIVTAAHCVETGVKITVVAGEHNIEETEHTEQKRNVIRIIPHHNYNAAINKYNHDIALLELDEPLVLNSYVTPICIADKEYTNIFLKFGSGYVSGWGRVFHKGYSALVLQYLRVPLVDRATCLESTKFTIYNNMFCAGFHEGGRDSCQGDSGGPHVTEVEGTSFLTGIISWGEECAMKGKYGIYTKVSEYVNWIKEKTKLT

The target in this series is Factor X (FX), P00742.
Factor X (FX), P00742, sequence (P00742 whole entry, looked up): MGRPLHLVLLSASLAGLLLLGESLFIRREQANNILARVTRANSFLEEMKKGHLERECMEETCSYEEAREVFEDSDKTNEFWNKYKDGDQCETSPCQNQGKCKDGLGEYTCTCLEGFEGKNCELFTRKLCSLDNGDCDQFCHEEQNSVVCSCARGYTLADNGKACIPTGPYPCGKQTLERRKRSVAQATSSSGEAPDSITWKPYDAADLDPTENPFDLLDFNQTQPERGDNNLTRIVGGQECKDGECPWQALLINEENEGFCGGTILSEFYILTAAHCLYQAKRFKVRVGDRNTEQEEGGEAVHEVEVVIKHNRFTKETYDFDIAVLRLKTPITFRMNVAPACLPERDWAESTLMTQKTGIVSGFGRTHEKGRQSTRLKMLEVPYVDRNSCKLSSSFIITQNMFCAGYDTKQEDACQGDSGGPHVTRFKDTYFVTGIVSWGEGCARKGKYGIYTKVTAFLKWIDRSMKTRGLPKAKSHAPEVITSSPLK
With B1, the “% of WT kcat/KM” value turned out to be 1269%; the KM was 0.0251 µM; the kcat (s^-1) of FX activation by FIXa variant in the Xase complex (FVIIIa, PC/PS vesicles, Ca2+), fluorogenic FXa read-out stood at 14.6 s⁻¹; the kcat/KM for FX activation (Xase: FVIIIa, PC/PS vesicles, Ca2+) came to 5.9e+08 M⁻¹ s⁻¹.
The like results for B2 were, in that order, 676%, 0.0275 µM, 7.9 s⁻¹ and 3.1e+08 M⁻¹ s⁻¹.
Take B3: the kcat was 5.9 s⁻¹.
With B4, the “% of WT kcat/KM” value came to 635%; the Michaelis-Menten constant (KM) was found to be 0.052 µM; the kcat (s^-1) of FX activation by FIXa variant in the Xase complex (FVIIIa, PC/PS vesicles, Ca2+), fluorogenic FXa read-out stood at 15 s⁻¹; the kcat/KM for FX activation (Xase: FVIIIa, PC/PS vesicles, Ca2+) was 2.9e+08 M⁻¹ s⁻¹.
For the protein B5, the kcat amounted to 5.5 s⁻¹.
Still for that read-out and setting: the result for B6 reads 6.7 s⁻¹; that for B7, 4.8 s⁻¹; that for B8, 1.7 s⁻¹.
The same measure, in the same setting: in the case of B9 it was 6 s⁻¹.
As for B10, the “% of WT kcat/KM” value turned out to be 1215%; the Michaelis constant (KM) stood at 0.0263 µM; the “catalytic activity (kcat/KM) for activation of FX” value is given as “improved activity when combined with other mutations”; the kcat (s^-1) of FX activation by FIXa variant in the Xase complex (FVIIIa, PC/PS vesicles, Ca2+), fluorogenic FXa read-out was 14.6 s⁻¹. In addition, the kcat/KM for FX activation (Xase: FVIIIa, PC/PS vesicles, Ca2+) was found to be 5.6e+08 M⁻¹ s⁻¹.
Consider B11, for which the kcat worked out at 2.9 s⁻¹.
As for B12, the “% of WT kcat/KM” value came out at 391%; the KM came out at 0.027 µM; the kcat (s^-1) of FX activation by FIXa variant in the Xase complex (FVIIIa, PC/PS vesicles, Ca2+), fluorogenic FXa read-out was 4.8 s⁻¹; the kcat/KM for FX activation (Xase: FVIIIa, PC/PS vesicles, Ca2+) was 1.8e+08 M⁻¹ s⁻¹.
With B13, the kcat was 5.1 s⁻¹.

The values above are taken from patent US20210238260.
